Measurements from article PMC2699478.

Assays:
[1] = biological target: NFAT (mouse (endogenous in NIH3T3)) (UniProt Q60591)
[2] = biological target: NF-kB (mouse (endogenous in NIH3T3))

Chain of UniProt Q60591 (Q60591 whole entry): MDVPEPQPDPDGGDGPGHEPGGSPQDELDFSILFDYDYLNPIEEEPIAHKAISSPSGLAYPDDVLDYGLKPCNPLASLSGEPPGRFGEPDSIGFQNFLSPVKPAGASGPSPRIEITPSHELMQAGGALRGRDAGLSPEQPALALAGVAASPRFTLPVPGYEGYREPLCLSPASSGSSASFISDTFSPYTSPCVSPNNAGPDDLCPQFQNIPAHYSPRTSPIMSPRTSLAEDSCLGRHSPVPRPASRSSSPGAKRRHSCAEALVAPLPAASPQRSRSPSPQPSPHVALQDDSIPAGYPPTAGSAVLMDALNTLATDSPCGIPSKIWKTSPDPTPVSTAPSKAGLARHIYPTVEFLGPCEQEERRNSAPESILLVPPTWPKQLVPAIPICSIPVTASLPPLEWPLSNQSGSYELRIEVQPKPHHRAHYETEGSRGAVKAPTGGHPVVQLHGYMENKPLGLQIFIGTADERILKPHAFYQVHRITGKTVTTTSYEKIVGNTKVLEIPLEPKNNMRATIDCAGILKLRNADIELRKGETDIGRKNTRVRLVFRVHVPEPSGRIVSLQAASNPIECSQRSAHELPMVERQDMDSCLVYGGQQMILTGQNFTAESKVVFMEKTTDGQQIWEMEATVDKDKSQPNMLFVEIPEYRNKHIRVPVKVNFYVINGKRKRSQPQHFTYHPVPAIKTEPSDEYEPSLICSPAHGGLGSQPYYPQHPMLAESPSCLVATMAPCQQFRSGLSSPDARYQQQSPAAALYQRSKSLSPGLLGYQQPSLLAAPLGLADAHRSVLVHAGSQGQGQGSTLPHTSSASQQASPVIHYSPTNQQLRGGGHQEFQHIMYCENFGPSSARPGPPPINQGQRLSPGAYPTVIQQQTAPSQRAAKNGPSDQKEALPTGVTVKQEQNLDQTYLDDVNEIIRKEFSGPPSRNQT

NFAT-mediated transcription of luciferase (pNFAT-TA-Luc) in NIH3T3 cells co-transfected with the FOXP3 isoform; induction without FOXP3 set 100% [1]: 50%
NF-kB-mediated transcription of luciferase (pNF-κB-Luc) in NIH3T3 cells co-transfected with the FOXP3 isoform; level left, induction without FOXP3 set 100% [2]: 9%
Substance: FOXP3Δ2 (natural protein)
